Entries after “also recorded” stand apart in the source; their conditions may differ.
Assays:
[1] = biological target: T1, FGFR4 (Homo sapiens, UniProt P22455); experiment: Pull-down of FLAG-sKL with Fc-tagged FGFR on protein A/G beads, absence of FGF23; format: binding; details: listed as FLAG-sKL
T1 construct: Fc-FGFR4 protein (human ectodomain) was immobilized; purchased R&D Systems 685FR050
T1 sequence (P22455 22-369 limits assumed): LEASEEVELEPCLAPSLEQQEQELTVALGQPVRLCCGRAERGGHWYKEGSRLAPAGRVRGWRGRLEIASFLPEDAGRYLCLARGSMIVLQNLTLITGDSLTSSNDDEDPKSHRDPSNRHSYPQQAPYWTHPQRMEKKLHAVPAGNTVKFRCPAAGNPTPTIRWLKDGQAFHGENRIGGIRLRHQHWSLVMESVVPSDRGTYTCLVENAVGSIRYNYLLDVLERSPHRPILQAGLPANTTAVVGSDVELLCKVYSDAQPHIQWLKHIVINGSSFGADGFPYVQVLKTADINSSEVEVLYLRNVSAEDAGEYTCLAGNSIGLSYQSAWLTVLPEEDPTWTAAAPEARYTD
Method: (§1) To study the interaction between Fc-tagged FGFR isoforms (Fc-FGFR), FGF isoforms, and sKL, immunoprecipitation studies were conducted. Protein A beads (6501, BioVision) and protein G beads (6511, BioVision) were used at 25 μl of a 50% stock slurry per sample in a total bead volume of 50 μl. Beads were washed 5× in activity buffer (50 mM Tris [pH 7.4], 200 mM NaCl, 0.01% Tween 20). Bead spin-down assays were all performed for 2 minutes at 5000 g. Beads were resuspended in 1 ml of activity buffer in a 1.5-ml snap cap tube. One microgram of Fc-FGFR1 to 4 was incubated with the beads for 1 hour on a bead rotator. Control samples were incubated with 2 μg of anti-FGF antibody instead of Fc-FGFR. Beads were then pelleted at 5000 g for 2 minutes and washed 5× with activity buffer. Beads were resuspended and incubated with different combinations of 500 ng of FGF, 1 μg of sKL, 1.6 United States Pharmacopeia (USP) units of heparin, or phosphate-buffered saline (PBS). Beads were incubated for 1 hour on a tube rotator, and beads were pelleted and washed as before. One hundred microliters of 1× Laemmli sample buffer (1610737, Bio-Rad) with 1.42 M 2-mercaptoethanol was added, and samples were boiled for 5 minutes. Samples were analyzed using SDS-PAGE and Western blotting.
(§2) The sample (20 μl) was loaded onto Mini-PROTEAN TGX Precast Gel 4-20% for experiments with <9 samples (4568094, Bio-Rad) or Criterion TGX Precast Gel 4-20% (5678094, Bio-Rad) for experiments with >9 samples. Gels were run in 1× Tris/Glycine/SDS buffer (1610732, Bio-Rad) at 150 V and stopped when the sample dye reached the end of the gel. Gels were removed and electrotransferred via a semi-dry cassette (1703940, Bio-Rad) in I× Tris/Glycine buffer (1610734, Bio-Rad) with 20% methanol. Gels were transferred onto polyvinylidene diflouride membranes (IPVH00010, Millipore) at 20 V for 1 hour. Membranes were then blocked in 5% dried milk with 0.5% Tween 20 diluted in Tris-buffered saline (TBST; pH 7.5) for 1 hour and probed with antibodies against specific antigens at 1:1000 in TBST with 5% dried milk. Blots were washed 3× for 5 minutes in TBST and probed with HRP-coupled secondary antibodies against specific species at 1:10,000 in TBST with 5% dried milk. Membranes were imaged on the SRX-101A X-ray film developer (Konica Minolta).

[2] = biological target: T2, FGFR2c (Homo sapiens, UniProt P21802); experiment: as above; format: binding
T2 construct: Fc-coupled FGFR ectodomains were immobilized on protein A/G beads; purchased R&D Systems 712FR050
Method: as §1, §2

[3] = biological target: T3, FGF23 (Homo sapiens, UniProt Q9GZV9); experiment: Plate-based binding assay, FGF23 coated, FLAG-sKL detected with anti-FLAG HRP; details: for binding of FLAG-sKL to coated FGF23 (absorbance at 450 nm): 10 ng FGF coated, 40 ng FLAG-sKL; for binding of FLAG-sKL to coated FGF23 compared with FGFR1c: 20 ng FGF23 coated, 80 ng FLAG-sKL
T3 construct: purchased R&D Systems 2604FG025/CF (human) or 2629FG025/CF (mouse)
T3 sequence (Q9GZV9 25-251): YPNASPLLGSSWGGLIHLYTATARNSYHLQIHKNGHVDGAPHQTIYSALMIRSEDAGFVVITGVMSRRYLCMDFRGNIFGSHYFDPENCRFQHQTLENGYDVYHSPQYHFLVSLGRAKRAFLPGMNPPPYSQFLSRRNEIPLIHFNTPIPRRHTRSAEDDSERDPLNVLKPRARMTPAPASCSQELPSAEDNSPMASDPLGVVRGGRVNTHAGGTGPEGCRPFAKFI
Method: Proteins were coated on 96-well plates (MaxiSorp; 439454, Thermo Fisher Scientific), and proteins were added to wells in 100 μl of enzyme-linked immunosorbent assay (ELISA) coating buffer (E107, Bethyl Laboratories) with a lid placed overtop and incubated at 4° C. overnight. Plates were washed 5× with 350 μl of assay buffer (50 mM Tris [pH 7.4], 200 mM NaCl, 0.01% Tween 20) on a 50 TS microplate washer (BioTek). Plates were blocked for 1 hour in 200 μl of assay buffer with 0.5% BSA. Plates were washed as before, and proteins were incubated on plates in 100 μl of assay buffer with 0.5% BSA. Proteins or heparin was incubated in orders described in the respective figure legends. Assays using FLAG-tag-based detection were incubated with anti-FLAG coupled to HRP at 1:20,000, and assays using Fc detection were incubated with anti-human Fc coupled to HRP at 1:10,000. Plates were washed as above, and 100 μl of 3,3′,5,5′-tetramethylbenzidine (TMB) substrate (E102, Bethyl Laboratories) was added for 15 to 20 minutes until positive wells developed a dark blue color. Reactions were stopped with ELISA stop solution (E115, Bethyl Laboratories) and analyzed using the Synergy HI plate reader (BioTek) at 450 nm wavelength. […] As a control to remove background absorbance values, wells were coated with an equal amount of BSA to match the amount of protein coated in experimental wells and treated the same as experimental wells. To study the effects of sKL on the binding between paracrine FGFs and FGFRs, plates were run as above except coated with paracrine FGFs. Fc-FGFR1 was preincubated with sKL or vehicle for 60 minutes, and then the combination was added to wells and the assay was run as before.

T2 sequence (P21802 22-377 limits assumed): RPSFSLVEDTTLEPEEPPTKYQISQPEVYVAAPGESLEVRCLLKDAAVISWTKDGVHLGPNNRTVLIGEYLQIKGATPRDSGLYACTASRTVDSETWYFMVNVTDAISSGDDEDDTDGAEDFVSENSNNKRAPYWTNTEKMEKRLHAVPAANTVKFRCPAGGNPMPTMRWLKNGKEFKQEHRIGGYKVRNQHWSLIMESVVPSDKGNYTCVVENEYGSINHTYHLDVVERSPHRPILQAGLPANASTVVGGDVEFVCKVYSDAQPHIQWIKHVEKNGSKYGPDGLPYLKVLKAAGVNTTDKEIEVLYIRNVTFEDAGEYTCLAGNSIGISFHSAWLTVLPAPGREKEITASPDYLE

B1: sKL: recombinant soluble α-klotho ectodomain, mouse aa 35-982 and human aa 34-981, FLAG- or Strep/His-tagged, purified from HEK293 cells (protein)
chain: EPGDGAQTWARFSRPPAPEAAGLFQGTFPDGFLWAVGSAAYQTEGGWQQHGKGASIWDTFTHHPLAPPGDSRNASLPLGAPSPLQPATGDVASDSYNNVFRDTEALRELGVTHYRFSISWARVLPNGSAGVPNREGLRYYRRLLERLRELGVQPVVTLYHWDLPQRLQDAYGGWANRALADHFRDYAELCFRHFGGQVKYWITIDNPYVVAWHGYATGRLAPGIRGSPRLGYLVAHNLLLAHAKVWHLYNTSFRPTQGGQVSIALSSHWINPRRMTDHSIKECQKSLDFVLGWFAKPVFIDGDYPESMKNNLSSILPDFTESEKKFIKGTADFFALCFGPTLSFQLLDPHMKFRQLESPNLRQLLSWIDLEFNHPQIFIVENGWFVSGTTKRDDAKYMYYLKKFIMETLKAIKLDGVDVIGYTAWSLMDGFEWHRGYSIRRGLFYVDFLSQDKMLLPKSSALFYQKLIEKNGFPPLPENQPLEGTFPCDFAWGVVDNYIQVDTTLSQFTDLNVYLWDVHHSKRLIKVDGVVTKKRKSYCVDFAAIQPQIALLQEMHVTHFRFSLDWALILPLGNQSQVNHTILQYYRCMASELVRVNITPVVALWQPMAPNQGLPRLLARQGAWENPYTALAFAEYARLCFQELGHHVKLWITMNEPYTRNMTYSAGHNLLKAHALAWHVYNEKFRHAQNGKISIALQADWIEPACPFSQKDKEVAERVLEFDIGWLAEPIFGSGDYPWVMRDWLNQRNNFLLPYFTEDEKKLIQGTFDFLALSHYTTILVDSEKEDPIKYNDYLEVQEMTDITWLNSPSQVAVVPWGLRKVLNWLKFKYGDLPMYIISNGIDDGLHAEDDQLRVYYMQNYINEALKAHILDGINLCGYFAYSFNDRTAPRFGLYRYAADQFEPKASMKHYRKIIDSNGFPGPETLERFCPEEFTVCTECSFFHTRKS
modifications: left off: small tags and cut ends
notes: recombinant soluble α-klotho ectodomain, mouse aa 35-982 and human aa 34-981, FLAG- or Strep/His-tagged, purified from HEK293 cells
In the case of B1, the “co-precipitation of FLAG-sKL with FGFR4” value [1] is reported as “to a lower extent with FGFR4; also recorded: bound to FGFR4 and to a lower extent to FGFR4”, the “sKL binding to FGFR2c” value [2] is reported as “no sKL binding” and the “binding of FLAG-sKL to coated FGF23 (absorbance at 450 nm)” value [3] is reported as “bound FGF23”. For the same molecule, the “binding of FLAG-sKL to coated FGF23 (absorbance at 450 nm)” value ([3]; listed as FLAG-sKL) was “only FGF23 bound FLAG-sKL”, the “binding of FLAG-sKL to coated FGF23 compared with FGFR1c” value [3] was “to a lesser extent” and the “binding of FLAG-sKL to coated FGF23 compared with FGFR1c” value ([3]; listed as FLAG-sKL) was “to a lower extent”. For the same molecule, the “FGF23 binding affinity, protein from HEK293 lysates instead of supernatants” value ([3]; 100 ng FGF23 coated, normalized to sKL amounts) was “higher”.

— patent US20240384250A1, “FIBROBLAST GROWTH FACTOR 23 MODULATING COMPOUNDS” (THE UAB RESEARCH FOUNDATION, priority 2021, published 2024)
